What was measured:
[1] = target: Dipeptidyl peptidase 9 (DPP9), recombinant wild-type (human) (UniProt Q86TI2); test: enzyme kinetics, GP-AMC hydrolysis by 25 nM recombinant DPP9 with 0, 5 or 20 µM peptide
[2] = target: Dipeptidyl peptidase 9 (DPP9), recombinant wild-type (human) (UniProt Q86TI2); test: cell-based or functional assay
[3] = target: Dipeptidyl peptidase 9 (DPP9), recombinant wild-type (human) (UniProt Q86TI2); test: ratio of Ki values for DPP9, reference EIL peptide
[4] = target: Dipeptidyl peptidase 8 (DPP8), recombinant (human) (UniProt Q6V1X1); test: enzyme kinetics, GP-AMC hydrolysis by recombinant DPP8
Dipeptidyl peptidase 8 (DPP8), recombinant (human), sequence (Q6V1X1 whole entry, form in doubt): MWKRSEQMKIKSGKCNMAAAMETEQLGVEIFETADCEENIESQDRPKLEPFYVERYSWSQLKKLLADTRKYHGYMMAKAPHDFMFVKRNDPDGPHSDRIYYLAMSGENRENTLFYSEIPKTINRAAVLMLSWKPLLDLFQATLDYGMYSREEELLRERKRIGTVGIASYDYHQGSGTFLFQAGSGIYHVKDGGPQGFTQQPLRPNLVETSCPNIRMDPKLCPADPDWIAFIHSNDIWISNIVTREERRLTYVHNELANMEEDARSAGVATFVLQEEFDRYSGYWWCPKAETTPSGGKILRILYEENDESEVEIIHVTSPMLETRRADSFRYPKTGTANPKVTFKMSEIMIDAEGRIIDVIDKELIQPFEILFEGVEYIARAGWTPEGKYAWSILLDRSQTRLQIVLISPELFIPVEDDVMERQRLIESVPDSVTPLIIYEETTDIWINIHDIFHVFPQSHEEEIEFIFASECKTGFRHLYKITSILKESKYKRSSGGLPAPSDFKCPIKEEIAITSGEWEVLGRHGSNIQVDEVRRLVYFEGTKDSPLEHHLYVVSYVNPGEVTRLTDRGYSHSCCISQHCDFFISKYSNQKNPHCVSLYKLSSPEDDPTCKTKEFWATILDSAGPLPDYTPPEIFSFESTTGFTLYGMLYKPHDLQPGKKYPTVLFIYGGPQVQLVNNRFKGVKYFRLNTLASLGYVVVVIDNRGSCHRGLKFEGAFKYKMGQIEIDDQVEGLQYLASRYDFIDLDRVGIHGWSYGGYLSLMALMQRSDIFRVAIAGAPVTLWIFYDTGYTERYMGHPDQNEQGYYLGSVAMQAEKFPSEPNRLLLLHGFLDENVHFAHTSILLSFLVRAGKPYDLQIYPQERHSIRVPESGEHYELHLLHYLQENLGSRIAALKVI

[5] = target: Dipeptidyl peptidase 8 (DPP8), recombinant (human) (UniProt Q6V1X1); test: ratio of Ki values, DPP8 against DPP9
[6] = target: Dipeptidyl peptidase 9 (DPP9), recombinant wild-type (human) (UniProt Q86TI2); test: enzyme kinetics, GP-AMC hydrolysis by recombinant DPP9
[7] = target: Dipeptidyl peptidase 8 (DPP8), recombinant (human) (UniProt Q6V1X1); test: cell-based or functional assay

Dipeptidyl peptidase 9 (DPP9), recombinant wild-type (human), sequence (Q86TI2 other isoform, or with tags, fused parts or gaps limits assumed, form in doubt): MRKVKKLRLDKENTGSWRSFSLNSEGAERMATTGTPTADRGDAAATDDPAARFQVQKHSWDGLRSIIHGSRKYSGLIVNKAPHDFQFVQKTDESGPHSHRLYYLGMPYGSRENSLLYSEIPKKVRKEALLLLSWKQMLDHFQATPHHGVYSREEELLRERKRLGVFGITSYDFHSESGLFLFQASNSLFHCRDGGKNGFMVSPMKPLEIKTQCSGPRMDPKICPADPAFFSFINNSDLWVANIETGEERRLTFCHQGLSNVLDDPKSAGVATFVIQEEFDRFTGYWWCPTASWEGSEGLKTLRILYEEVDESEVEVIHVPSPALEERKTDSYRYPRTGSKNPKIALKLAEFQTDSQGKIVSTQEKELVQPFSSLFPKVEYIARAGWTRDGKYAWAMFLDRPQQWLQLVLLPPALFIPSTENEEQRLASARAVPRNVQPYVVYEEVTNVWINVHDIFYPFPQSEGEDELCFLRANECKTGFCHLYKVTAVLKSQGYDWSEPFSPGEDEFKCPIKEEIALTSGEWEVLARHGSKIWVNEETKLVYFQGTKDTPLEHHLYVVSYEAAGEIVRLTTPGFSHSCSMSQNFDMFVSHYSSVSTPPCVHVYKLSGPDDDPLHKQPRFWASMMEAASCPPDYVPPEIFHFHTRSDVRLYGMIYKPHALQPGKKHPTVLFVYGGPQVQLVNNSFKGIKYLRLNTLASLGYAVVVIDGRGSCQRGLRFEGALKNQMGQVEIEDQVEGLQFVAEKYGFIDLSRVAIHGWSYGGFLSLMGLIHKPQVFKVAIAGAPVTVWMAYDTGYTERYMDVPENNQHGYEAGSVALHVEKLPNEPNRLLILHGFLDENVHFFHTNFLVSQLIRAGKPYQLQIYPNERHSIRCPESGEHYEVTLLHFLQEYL

| Ki [1] [µM] | % DPP9 activity (Mean), 10 µM peptide [2] [%] | fold increased efficiency compared to the EIL peptide [3] [fold] | Ki [4] [µM] | fold lower affinity compared to DPP9 [5] [fold] | Ki [6] [µM] | AMC release from GP-AMC in the unbound fraction (depleted lysates) [2] [%] | AMC release from GP-AMC in the unbound fraction (depleted lysates) [7] [%] | Substance |
| --- | --- | --- | --- | --- | --- | --- | --- | --- |
| 2 | 24.1 |  |  |  |  |  |  | SLRFLFEG (SEQ ID NO: 37) (peptide) |
|  | 10.9 | 18.5 | 3.6 | 9 | 0.4 |  |  | SLRFLYEG (SEQ ID NO: 38) (peptide) |
|  |  |  |  |  |  | 40 | 40 | SUMO1 (from UniProt P63165 1-97) |
